Assay results: patent US20170327598A1 (published 2017)
Read-outs that look alike come from different tables or passages of the source.

How the values were obtained:
[1] = target: commercially available anti-Stat3 antibody (Abcam, Cambridge, Mass.); assay: ELISA, antibody coated at 1 µg/mL, secondary antibody 1:5,000, Experiment 3
[2] = target: T1, active human TNF-α full length protein (human, UniProt P01375 77-233)
[3] = target: T1, active human TNF-α full length protein; remark: listed apart in the source
[4] = target: T1, active human TNF-α full length protein; remark: listed apart in the source
[5] = target: T1, active human TNF-α full length protein; assay: ELISA, wells coated with 0.5 µg/mL TNF-α, sdAb at 1 µg/mL
[6] = target: T1, active human TNF-α full length protein; remark: listed apart in the source
[7] = target: T1, active human TNF-α full length protein; remark: listed apart in the source
[8] = target: T1, active human TNF-α full length protein; remark: listed apart in the source
[9] = target: T1, active human TNF-α full length protein; remark: listed apart in the source
[10] = target: T1, active human TNF-α full length protein; remark: listed apart in the source
[11] = target: T1, active human TNF-α full length protein; remark: listed apart in the source
[12] = target: T1, active human TNF-α full length protein; remark: listed apart in the source
[13] = target: T1, active human TNF-α full length protein; remark: listed apart in the source
[14] = target: T1, active human TNF-α full length protein; remark: listed apart in the source
[15] = target: human KRAS (normal human KRAS, full protein) (human, UniProt P01116-2 1-188, limits assumed); assay: SPR, Biacore 3000
[16] = target: endogenous STAT3 of the murine 4T1 cell line (murine, UniProt P42227 2-770); assay: immunoprecipitation from 4T1 lysate, Western blot
endogenous STAT3 of the murine 4T1 cell line, sequence (P42227 2-770 limits assumed): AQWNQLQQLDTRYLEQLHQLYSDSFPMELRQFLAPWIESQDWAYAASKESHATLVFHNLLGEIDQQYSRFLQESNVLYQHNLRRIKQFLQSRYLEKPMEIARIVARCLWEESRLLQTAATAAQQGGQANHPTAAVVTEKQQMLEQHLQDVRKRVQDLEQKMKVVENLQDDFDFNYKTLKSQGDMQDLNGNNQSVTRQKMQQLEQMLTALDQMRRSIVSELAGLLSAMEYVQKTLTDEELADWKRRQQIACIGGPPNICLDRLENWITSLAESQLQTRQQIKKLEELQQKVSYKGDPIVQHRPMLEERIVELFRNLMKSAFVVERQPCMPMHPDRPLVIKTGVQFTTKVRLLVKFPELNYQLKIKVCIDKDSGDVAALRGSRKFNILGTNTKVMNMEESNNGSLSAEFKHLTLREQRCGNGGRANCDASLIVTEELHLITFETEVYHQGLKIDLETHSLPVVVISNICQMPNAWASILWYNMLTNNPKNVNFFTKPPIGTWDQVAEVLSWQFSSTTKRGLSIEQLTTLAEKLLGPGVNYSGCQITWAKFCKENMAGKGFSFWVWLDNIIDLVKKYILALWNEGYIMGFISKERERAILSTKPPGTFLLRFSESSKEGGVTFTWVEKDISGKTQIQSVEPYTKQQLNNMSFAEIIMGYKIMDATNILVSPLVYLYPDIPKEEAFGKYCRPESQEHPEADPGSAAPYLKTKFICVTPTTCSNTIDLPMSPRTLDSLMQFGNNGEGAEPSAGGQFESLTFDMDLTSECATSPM

[17] = target: human STAT3 (human, UniProt P40763 1-770, limits assumed); assay: SPR, Biacore 3000
[18] = target: human STAT3 (Biacore) (human, UniProt P40763 1-770, limits assumed); assay: SPR

T1 sequence (P01375 77-233 limits assumed): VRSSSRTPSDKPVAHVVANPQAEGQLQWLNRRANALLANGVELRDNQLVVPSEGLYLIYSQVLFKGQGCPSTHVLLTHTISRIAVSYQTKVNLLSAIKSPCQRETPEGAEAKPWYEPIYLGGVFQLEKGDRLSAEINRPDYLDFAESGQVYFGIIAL

Molecule: his-probe (H-3) biotin labeled antibody
- OD450 [1]: 0.018 OD450

B1: anti-TNF-alpha VHH69 (SEQ ID NO:46) sdAb (VHH)
VHH: EVQLVESGGGSVLAGGSLRLSCVASGFTSRYNYMAWFRQAPGKEREGVATIGTASGSADYYGSVKDRFTISQDNAKNTVYLQMNSLKPEDTAMYYCAARTYGTISLTPSDYRYWGQGTLVTVSS
- Signal/Noise Ratio [2]: 1.6
- Signal/Noise Ratio [3]: 3.2
- Signal/Noise Ratio [4]: 1.6
- OD450 [5]: 1.95 OD450
- Signal/Noise Ratio [6]: 3.7
- Signal/Noise Ratio [7]: 2.4
- Signal/Noise Ratio [8]: 5.9
- Signal/Noise Ratio [9]: 1.3
- Signal/Noise Ratio [10]: 7.5
- Signal/Noise Ratio [11]: 1.9
- Signal/Noise Ratio [12]: 2.1
- Signal/Noise Ratio [13]: 8
- Signal/Noise Ratio [14]: 1.5

B2: anti-STAT3 VHH13 (SEQ ID NO:3) sdAb (VHH)
VHH: HVQLVESGGGSVQAGGSLRLSCAASGANGGRSCMGWFRQVPGKEREGVSGISTGGLITYYADSVKGRFTISQDNTKNTLYLQMNSLKPEDTAMYYCATSRFDCYRGSWFNRYMYNSWGQGTQVTVSS
- Kd [15]: 126 nM

B3: anti-STAT3 VHH13 (SEQ ID NO:3) sdAb (VHH)
VHH: B2 VHH
- binding result [16]: binds

B4: anti-KRAS (G12D) (SEQ ID NO:2) sdAb (VHH)
VHH: EVQLVESGGGSVQTGGSLRLSCAVSGNIGSSYCMGWFRQAPGKKREAVARIVRDGATGYADYVKGRFTISRDSAKNTLYLQMNRLIPEDTAIYYCAADLPPGCLTQAIWNFGYRGQGTLVTVSS
- binding result [17]: no binding (tested: 0-200 nM)

B5: anti-KRAS (G12D) (SEQ ID NO:2) sdAb (VHH)
VHH: B4 VHH
- binding result [18]: no binding
